± gives the uncertainty stated by the source.
Experiment: self-splicing fitness, log relative to wild type (ln ratio); higher = more splicing; Tetrahymena group I intron in knt gene, E. coli kanamycin selection, DiMSum; sequences stand for … in CUCUCU…GGAGGGAAAAGUUAUCAGGCAUGCACCUGGUAGCUAGUCUUUAAACCAAUAGAUUGCAUCGGUUUAAAAGGCAAGACCGUCAAAUUGCGGGAAAGGGGUCAACAGCCGUUCAGUACCAAGUCUCAGGGGAAACUUUGAGAUGGCCUUGCAAAGGGUAUGGUAAUAAGCUGACGGACAUGGUCCUAACCACGCAGCCAAGUCCUAAGUCAACAGAUCUUCUGUUGAUAUGGAUGCAGUUCACAGACUAAAUGUCGGUCGGGGAAGAUGUAUUCUUCUCAUAAGAUAUAGUCGGACCUCUCCUUAAUGGGAGCUAGCGGAUGAAGUGAUGCAACACUGGAGCCGCUGGGAACUAAUUUGUAUGCGAAAGUAUAUUGAUUAGUUUUGGAGUACUCGUGGUCG
Procedure, shortened: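 Six replicate transformations of E. coli BL21(DE3) with a pET-22b(+) library were grown overnight at 37°C or 30°C. The library randomised all eight P1ex-region intron nucleotides, the intron lying in the knt kanamycin-resistance gene, and plates were LB agar with or without 25 μg/mL kanamycin plus 100 μg/mL carbenicillin, 50 μM IPTG and 0.2% rhamnose. Pooled colonies were amplicon-sequenced on an Illumina HiSeq 2500, and fitness is the DiMSum error-weighted combination of wild-type-normalised replicate fold changes, kanamycin versus none.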

Row | Sequence | self-splicing fitness (ln) (30 °C) | self-splicing fitness (ln) (37 °C)
1 | GCAGAGCAAUAUUACGAAAG | -2.9 ± 0.16 | -3.24 ± 0.26
2 | GCAGAGCAAUAUUACGAAUC | -1.94 ± 0.33 | -1.15 ± 0.33
3 | GCAGAGCAAUAUUACGAUCC | -2.13 ± 0.3 | -0.288 ± 0.46
4 | GCAGAGCAAUAUUACGAUUU | -2.51 ± 0.14 | -2.16 ± 0.19
5 | GCAGAGCAAUAUUACGCGUG | -2.7 ± 0.24 | -3.6 ± 0.37
6 | GCAGAGCAAUAUUACGCUAA | – | -2.95 ± 0.43
7 | GCAGAGCAAUAUUACGGAGG | -5.06 ± 0.25 | -2.14 ± 0.15
8 | GCAGAGCAAUAUUACGGCAC | -1.64 ± 0.17 | -1.42 ± 0.26
9 | GCAGAGCAAUAUUACGGCUA | -1.53 ± 0.14 | -0.385 ± 0.11
10 | GCAGAGCAAUAUUACGGGAC | -3.3 ± 0.14 | -1.65 ± 0.11
11 | GCAGAGCAAUAUUACGUAUU | -3.82 ± 0.23 | -1.9 ± 0.16
12 | GCAUAGCAAUAUUACGAAAA | – | 0.492 ± 0.27
13 | GCAUAGCAAUAUUACGACAA | -2.27 ± 0.19 | -0.595 ± 0.13
14 | GCAUAGCAAUAUUACGACUA | -0.161 ± 0.23 | 0.00165 ± 0.2
15 | GCAUAGCAAUAUUACGAGCU | -3.2 ± 0.19 | -1.31 ± 0.15
16 | GCAUAGCAAUAUUACGAGUC | -2.44 ± 0.12 | -2.7 ± 0.17
17 | GCAUAGCAAUAUUACGCAAA | -1.88 ± 0.39 | -0.928 ± 0.24
18 | GCAUAGCAAUAUUACGCACG | -2 ± 0.17 | -2.05 ± 0.22
19 | GCAUAGCAAUAUUACGCAUA | -2.29 ± 0.15 | -1.16 ± 0.12
20 | GCAUAGCAAUAUUACGCCCG | -1.24 ± 0.32 | -0.11 ± 0.32
21 | GCAUAGCAAUAUUACGCGUC | -3.3 ± 0.2 | -2.97 ± 0.4
22 | GCAUAGCAAUAUUACGGACU | 0.021 ± 0.15 | -0.121 ± 0.15
23 | GCAUAGCAAUAUUACGGGUU | -1.79 ± 0.091 | -0.302 ± 0.088
24 | GCAUAGCAAUAUUACGGUUC | -2.21 ± 0.12 | -0.892 ± 0.13

Row | Sequence | self-splicing fitness (ln) (30 °C) | self-splicing fitness (ln) (37 °C)
25 | GCAUAGCAAUAUUACGUAGU | -2.22 ± 0.15 | -1.51 ± 0.16
26 | GCAUAGCAAUAUUACGUCAC | -3.21 ± 0.16 | -2.08 ± 0.22
27 | GCAUAGCAAUAUUACGUCCA | -1.49 ± 0.21 | -0.447 ± 0.18
28 | GCAUAGCAAUAUUACGUCGC | -1.2 ± 0.28 | -2.32 ± 0.45
29 | GCAUAGCAAUAUUACGUGGA | -3.06 ± 0.25 | -1.75 ± 0.17
30 | GCAUAGCAAUAUUACGUUAC | -2.15 ± 0.41 | -1.85 ± 0.4
31 | GCAUAGCAAUAUUACGUUGA | -2.41 ± 0.12 | -1.76 ± 0.1
32 | GCAUAGCAAUAUUACGUUGU | -3.21 ± 0.17 | -2.74 ± 0.19
33 | GCCAAGCAAUAUUACGAAGA | -2.96 ± 0.21 | -1.39 ± 0.17
34 | GCCAAGCAAUAUUACGAAUG | -3.56 ± 0.2 | -1.84 ± 0.16
35 | GCCAAGCAAUAUUACGAUUG | -4.04 ± 0.4 | -2.12 ± 0.34
36 | GCCAAGCAAUAUUACGCCCA | -1.18 ± 0.1 | -0.6 ± 0.12
37 | GCCAAGCAAUAUUACGCGUA | -0.871 ± 0.089 | -0.13 ± 0.089
38 | GCCAAGCAAUAUUACGCUAC | -4.34 ± 0.42 | -2.22 ± 0.16
39 | GCCAAGCAAUAUUACGCUAU | -1.23 ± 0.064 | -0.923 ± 0.078
40 | GCCAAGCAAUAUUACGCUGA | -1.4 ± 0.1 | -0.943 ± 0.15
41 | GCCAAGCAAUAUUACGGAUA | -0.904 ± 0.069 | -0.65 ± 0.073
42 | GCCAAGCAAUAUUACGGCAG | -3.71 ± 0.19 | -2.54 ± 0.23
43 | GCCAAGCAAUAUUACGGUCC | -2.49 ± 0.11 | -0.771 ± 0.11
44 | GCCAAGCAAUAUUACGUCAC | -3.8 ± 0.19 | -1.8 ± 0.16
45 | GCCAAGCAAUAUUACGUCGC | -2.63 ± 0.14 | -1.23 ± 0.1
46 | GCCAAGCAAUAUUACGUCUA | -1.15 ± 0.11 | -1.08 ± 0.1
47 | GCCAAGCAAUAUUACGUCUC | -0.775 ± 0.067 | -0.174 ± 0.087
48 | GCCAAGCAAUAUUACGUUGU | -1.79 ± 0.064 | -0.73 ± 0.072

Row | Sequence | self-splicing fitness (ln) (30 °C) | self-splicing fitness (ln) (37 °C)
49 | GCCCAGCAAUAUUACGAAAG | -2.48 ± 0.12 | -2.07 ± 0.19
50 | GCCCAGCAAUAUUACGAAUU | -2.18 ± 0.077 | -0.934 ± 0.094
51 | GCCCAGCAAUAUUACGAGCA | -1.49 ± 0.11 | -0.143 ± 0.091
52 | GCCCAGCAAUAUUACGAGCG | -0.449 ± 0.067 | -1.17 ± 0.1
53 | GCCCAGCAAUAUUACGAGGC | -3.64 ± 0.2 | -2.5 ± 0.22
54 | GCCCAGCAAUAUUACGAUGC | -0.328 ± 0.055 | 0.257 ± 0.076
55 | GCCCAGCAAUAUUACGAUGG | -3.53 ± 0.14 | -2.98 ± 0.18
56 | GCCCAGCAAUAUUACGCAGA | -3.37 ± 0.28 | -3.47 ± 0.42
57 | GCCCAGCAAUAUUACGCCAC | -4.89 ± 0.38 | -2.44 ± 0.18
58 | GCCCAGCAAUAUUACGCGUG | -3.68 ± 0.13 | -2.41 ± 0.12
59 | GCCCAGCAAUAUUACGCUAU | -0.826 ± 0.082 | -0.309 ± 0.086
60 | GCCCAGCAAUAUUACGCUCA | -0.789 ± 0.08 | -0.055 ± 0.1
61 | GCCCAGCAAUAUUACGCUGA | -1.08 ± 0.13 | -0.784 ± 0.18
62 | GCCCAGCAAUAUUACGGAUU | 0.0408 ± 0.057 | -0.0391 ± 0.08
63 | GCCCAGCAAUAUUACGUAAU | -0.747 ± 0.06 | -0.32 ± 0.067
64 | GCCCAGCAAUAUUACGUCAC | -2.87 ± 0.13 | -2.64 ± 0.22
65 | GCCCAGCAAUAUUACGUGCC | -3.75 ± 0.32 | -3.18 ± 0.2
66 | GCCCAGCAAUAUUACGUGGG | -3.2 ± 0.12 | -3.07 ± 0.2
67 | GCCCAGCAAUAUUACGUUAU | -1.17 ± 0.079 | -1.29 ± 0.1
68 | GCCCAGCAAUAUUACGUUCA | -2.45 ± 0.16 | -0.504 ± 0.11
69 | GCCCAGCAAUAUUACGUUUC | -1.36 ± 0.078 | -1.37 ± 0.1
70 | GCCGAGCAAUAUUACGAAGC | -2.8 ± 0.33 | -1.8 ± 0.46
71 | GCCGAGCAAUAUUACGAUAC | – | -1.59 ± 0.35
72 | GCCGAGCAAUAUUACGAUCG | -2.36 ± 0.26 | –

Row | Sequence | self-splicing fitness (ln) (30 °C) | self-splicing fitness (ln) (37 °C)
73 | GCCGAGCAAUAUUACGCAAU | -2.79 ± 0.2 | -1.35 ± 0.15
74 | GCCGAGCAAUAUUACGCACU | -1.64 ± 0.11 | -0.365 ± 0.13
75 | GCCGAGCAAUAUUACGCAUC | -2.54 ± 0.24 | -1.48 ± 0.28
76 | GCCGAGCAAUAUUACGCCGU | -3.28 ± 0.29 | -1.75 ± 0.19
77 | GCCGAGCAAUAUUACGCUAA | -1.86 ± 0.2 | -2.62 ± 0.23
78 | GCCGAGCAAUAUUACGCUCU | -0.992 ± 0.2 | -0.494 ± 0.21
79 | GCCGAGCAAUAUUACGCUUU | -1.61 ± 0.082 | -0.235 ± 0.093
80 | GCCGAGCAAUAUUACGUACC | -2.15 ± 0.13 | -0.678 ± 0.16
81 | GCCGAGCAAUAUUACGUAGA | -2.74 ± 0.13 | -2.07 ± 0.14
82 | GCCGAGCAAUAUUACGUAGG | -3.39 ± 0.21 | -0.729 ± 0.25
83 | GCCGAGCAAUAUUACGUGCG | -2.17 ± 0.11 | -1.28 ± 0.098
84 | GCCGAGCAAUAUUACGUUAU | -2.06 ± 0.098 | -2.43 ± 0.18
85 | GCCGAGCAAUAUUACGUUGU | -2.48 ± 0.12 | -1.54 ± 0.12
86 | GCCUAGCAAUAUUACGAAAU | -2.34 ± 0.12 | -0.297 ± 0.13
87 | GCCUAGCAAUAUUACGACCU | -1.35 ± 0.23 | -1.02 ± 0.27
88 | GCCUAGCAAUAUUACGACGA | -1.46 ± 0.14 | -0.629 ± 0.13
89 | GCCUAGCAAUAUUACGAUAU | -2.23 ± 0.11 | -0.907 ± 0.097
90 | GCCUAGCAAUAUUACGAUCU | -2.18 ± 0.079 | -0.334 ± 0.071
91 | GCCUAGCAAUAUUACGCAAC | -1.78 ± 0.14 | -1.21 ± 0.13
92 | GCCUAGCAAUAUUACGCCAA | -2.38 ± 0.32 | -3.18 ± 0.29
93 | GCCUAGCAAUAUUACGCGAU | -3.87 ± 0.24 | -1.68 ± 0.16
94 | GCCUAGCAAUAUUACGCGCA | -1.21 ± 0.12 | -0.303 ± 0.11
95 | GCCUAGCAAUAUUACGCGCU | -2.19 ± 0.13 | -0.269 ± 0.11
96 | GCCUAGCAAUAUUACGCGGC | -3.58 ± 0.35 | -2 ± 0.28

— the supplement of paper PMC7877785
